Source: US20050282743A1, “Molecular interactions in cells” (Arbor Vita Corporation, priority 2001, published 2005)
Ends that are not written are not given here. * marks the point of attachment. Biotin = O=C1N[C@H]2[C@H](CS[C@H]2CCCCC(=O)*)N1

How the values were obtained:
Test in all cases: G' assay (10 uM PL peptide), results of TABLE 7 and TABLE 12
Format in all cases: binding
[1] = biological target: T1, PDZ protein (GST-PDZ fusion) (Homo sapiens, UniProt Q9Y2H9); details: PDZ KIAA0973, PDZ Domain 1
T1 construct: made in house; host or cells: E. coli (DH5alpha, BL21 or JM109)
Text: (§1) Each page of TABLE 7 and 12 includes seven columns. The columns in each table are numbered from left to right such that the left-most column in each table is column 1 and the right-most column in each table is column 7. Thus, the first column in each table is labeled “AVC ID”; this column simply lists an internal reference number used to refer to the carboxyl-terminal amino acids of the PL proteins listed in the second column. […] All PL peptides were biotinylated at the amino-terminus and the sequences of these PL peptides are presented in TABLE 8 (see end of specification).
(§2) This column provides the gene name for the PDZ portion of the GST-PDZ fusion that interacts with the PDZ-ligand to the left. For PDZ domain-containing proteins with multiple domains, the domain number is listed to the right of the PDZ (i.e., in column 5 labeled “PDZ Domain”), and indicates the PDZ domain number when numbered from the amino-terminus to the carboxy-terminus.
(§3) The third column labeled “Peptide Optimal Concentration” in the tables is a number reflective of the binding interaction between the PL protein and PDZ protein. […] The column labeled “Protein Optimal Concentration” refers to the protein concentration used to assay PL interaction (in ug/ml); a ‘0’ is indicative of 5 ug/ml protein concentration; any other value represents the concentration (in ug/ml) used to determine the dissociation constant for a given interaction.
(§4) Finally, the seventh column labeled “Classification” is another measure of the level of binding. In particular, it provides an absorbance value at 450 nm which indicates the amount of PL peptide bound to the PDZ protein. The following numerical values have the following meanings: ‘1’—A450 nm 0-1; ‘2’—A450 nm 1-2; ‘3’—A450 nm 2-3; ‘4’—A450 nm 3-4; ‘5’—A450 nm of 4 more than 2× repeated; ‘0’—A450 nm 0, i.e., not found to interact. Thus, higher numbers indicate stronger interactions.
(§5) For convenience, the assay conditions described in this section are referred to as the “G′ assay” and the “G″ assay,” with the specific conditions described in the preceding section on G assays being referred to as the “G^0 assay.” The “G′ assay” is identical to the “G^0 assay” except at step (2) the peptide concentration is 10 uM instead of 20 uM.

[2] = biological target: T2, PDZ protein (GST-PDZ fusion) (Homo sapiens, UniProt Q6P0Q8)
T2 construct: made in house; host or cells: E. coli (DH5alpha, BL21 or JM109)
Text: as §1, §2, §3, §4, §5

[3] = biological target: T3, PDZ protein (GST-PDZ fusion) (Homo sapiens, UniProt O75970); details: PDZ MUPP-1, PDZ Domain 11
T3 construct: made in house; host or cells: E. coli (DH5alpha, BL21 or JM109)
Text: as §1, §2, §3, §4, §5

[4] = biological target: T4, PDZ protein (GST-PDZ fusion) (Homo sapiens, UniProt Q02410); details: PDZ Mint 1, PDZ Domain 2
T4 construct: made in house; host or cells: E. coli (DH5alpha, BL21 or JM109)
T4 sequence (Q02410 1-837): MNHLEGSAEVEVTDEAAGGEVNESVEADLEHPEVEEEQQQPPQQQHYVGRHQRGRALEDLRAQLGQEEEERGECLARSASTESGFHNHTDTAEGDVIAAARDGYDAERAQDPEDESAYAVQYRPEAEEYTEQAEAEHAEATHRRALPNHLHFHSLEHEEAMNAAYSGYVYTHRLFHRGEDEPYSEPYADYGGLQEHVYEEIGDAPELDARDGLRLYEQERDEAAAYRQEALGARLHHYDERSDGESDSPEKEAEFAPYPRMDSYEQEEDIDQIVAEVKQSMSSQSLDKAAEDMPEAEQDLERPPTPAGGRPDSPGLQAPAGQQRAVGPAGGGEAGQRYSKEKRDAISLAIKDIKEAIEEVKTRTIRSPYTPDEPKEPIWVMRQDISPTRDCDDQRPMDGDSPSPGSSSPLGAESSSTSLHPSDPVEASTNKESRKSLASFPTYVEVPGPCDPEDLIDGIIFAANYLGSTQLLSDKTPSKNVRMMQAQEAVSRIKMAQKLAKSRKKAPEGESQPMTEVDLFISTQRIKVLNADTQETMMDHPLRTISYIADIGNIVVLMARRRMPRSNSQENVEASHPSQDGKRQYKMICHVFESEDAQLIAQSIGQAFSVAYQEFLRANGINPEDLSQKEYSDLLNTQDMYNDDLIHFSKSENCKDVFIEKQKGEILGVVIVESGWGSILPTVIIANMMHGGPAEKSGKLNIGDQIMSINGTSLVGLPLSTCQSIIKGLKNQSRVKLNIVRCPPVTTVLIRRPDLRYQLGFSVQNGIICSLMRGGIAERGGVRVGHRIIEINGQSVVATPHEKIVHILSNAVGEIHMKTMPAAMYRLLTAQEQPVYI
Text: as §1, §2, §3, §4, §5

[5] = biological target: T5, PDZ protein (GST-PDZ fusion) (Homo sapiens, UniProt Q9C0E4); details: PDZ KIAA1719, PDZ Domain 6
T5 construct: made in house; host or cells: E. coli (DH5alpha, BL21 or JM109)
Text: as §1, §2, §3, §4, §5

[6] = biological target: T6, PDZ protein (GST-PDZ fusion) (Homo sapiens, UniProt Q9NZN5); details: PDZ KIAA0382, PDZ Domain 1
T6 construct: made in house; host or cells: E. coli (DH5alpha, BL21 or JM109)
Text: as §1, §2, §3, §4, §5

[7] = biological target: T7, PDZ protein (GST-PDZ fusion) (Homo sapiens, UniProt Q8TEW0); details: PDZ PAR3, PDZ Domain 3
T7 construct: made in house; host or cells: E. coli (DH5alpha, BL21 or JM109)
Text: as §1, §2, §3, §4, §5

[8] = biological target: T8, PDZ protein (GST-PDZ fusion) (Homo sapiens, UniProt Q5TCQ9); details: PDZ KIAA1634, PDZ Domain 1
T8 construct: made in house; host or cells: E. coli (DH5alpha, BL21 or JM109)
T8 sequence (Q5TCQ9 1-1481): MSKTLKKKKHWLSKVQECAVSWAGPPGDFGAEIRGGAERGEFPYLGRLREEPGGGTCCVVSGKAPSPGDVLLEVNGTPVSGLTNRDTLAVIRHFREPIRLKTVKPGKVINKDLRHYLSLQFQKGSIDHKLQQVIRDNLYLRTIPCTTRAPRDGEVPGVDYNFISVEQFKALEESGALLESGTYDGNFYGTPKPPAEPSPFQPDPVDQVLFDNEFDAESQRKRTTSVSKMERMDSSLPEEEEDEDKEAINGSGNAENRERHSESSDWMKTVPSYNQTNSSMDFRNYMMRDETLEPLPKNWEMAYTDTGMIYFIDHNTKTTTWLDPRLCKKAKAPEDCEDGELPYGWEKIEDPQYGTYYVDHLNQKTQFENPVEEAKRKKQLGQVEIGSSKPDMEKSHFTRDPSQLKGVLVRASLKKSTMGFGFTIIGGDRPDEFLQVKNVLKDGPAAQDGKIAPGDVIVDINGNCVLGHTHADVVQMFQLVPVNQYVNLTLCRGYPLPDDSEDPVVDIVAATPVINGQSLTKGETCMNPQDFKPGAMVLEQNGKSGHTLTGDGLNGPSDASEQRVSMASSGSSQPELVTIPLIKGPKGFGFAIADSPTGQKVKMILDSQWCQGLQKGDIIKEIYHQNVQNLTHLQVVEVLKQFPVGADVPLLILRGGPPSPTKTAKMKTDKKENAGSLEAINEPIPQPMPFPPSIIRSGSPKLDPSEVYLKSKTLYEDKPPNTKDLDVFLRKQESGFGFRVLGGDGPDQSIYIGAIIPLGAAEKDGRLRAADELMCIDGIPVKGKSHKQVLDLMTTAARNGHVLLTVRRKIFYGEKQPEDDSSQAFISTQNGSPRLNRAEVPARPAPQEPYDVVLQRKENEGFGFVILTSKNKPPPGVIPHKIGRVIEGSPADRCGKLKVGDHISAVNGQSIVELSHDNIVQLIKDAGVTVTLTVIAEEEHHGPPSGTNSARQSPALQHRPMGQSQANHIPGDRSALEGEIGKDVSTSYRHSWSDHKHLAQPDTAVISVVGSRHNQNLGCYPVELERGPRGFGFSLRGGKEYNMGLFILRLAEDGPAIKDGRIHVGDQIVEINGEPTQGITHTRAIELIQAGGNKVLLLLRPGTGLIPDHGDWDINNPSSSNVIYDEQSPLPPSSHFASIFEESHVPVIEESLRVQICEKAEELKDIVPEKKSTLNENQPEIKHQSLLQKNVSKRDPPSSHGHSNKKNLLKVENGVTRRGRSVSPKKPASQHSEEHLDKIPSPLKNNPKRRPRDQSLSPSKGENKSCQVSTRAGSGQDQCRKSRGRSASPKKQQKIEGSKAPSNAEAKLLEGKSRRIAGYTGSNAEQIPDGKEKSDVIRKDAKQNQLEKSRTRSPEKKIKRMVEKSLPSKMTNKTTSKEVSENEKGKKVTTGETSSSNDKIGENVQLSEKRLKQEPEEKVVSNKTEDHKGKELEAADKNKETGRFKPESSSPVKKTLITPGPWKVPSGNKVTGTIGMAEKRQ
Text: as §1, §2, §3, §4, §5

[9] = biological target: T9, PDZ protein (GST-PDZ fusion) (Homo sapiens, UniProt Q12959); details: PDZ DLG1, PDZ Domain 2
T9 construct: made in house; host or cells: E. coli (DH5alpha, BL21 or JM109)
Text: as §1, §2, §3, §4, §5

[10] = biological target: T10, PDZ protein (GST-PDZ fusion) (Homo sapiens, UniProt O15018); details: PDZ AIPC, PDZ Domain 1
T10 construct: made in house; host or cells: E. coli (DH5alpha, BL21 or JM109)
Text: as §1, §2, §3, §4, §5

[11] = biological target: T11, PDZ protein (GST-PDZ fusion) (Homo sapiens, UniProt Q13796); details: PDZ hAPXL, PDZ Domain 1
T11 construct: made in house; host or cells: E. coli (DH5alpha, BL21 or JM109)
Text: as §1, §2, §3, §4, §5

[12] = biological target: T12, PDZ protein (GST-PDZ fusion) (Homo sapiens, UniProt Q12923); details: PDZ PTPL-1, PDZ Domain 4
T12 construct: made in house; host or cells: E. coli (DH5alpha, BL21 or JM109)
Text: as §1, §2, §3, §4, §5

T7 sequence (Q8TEW0 whole entry, the tested form may be a part): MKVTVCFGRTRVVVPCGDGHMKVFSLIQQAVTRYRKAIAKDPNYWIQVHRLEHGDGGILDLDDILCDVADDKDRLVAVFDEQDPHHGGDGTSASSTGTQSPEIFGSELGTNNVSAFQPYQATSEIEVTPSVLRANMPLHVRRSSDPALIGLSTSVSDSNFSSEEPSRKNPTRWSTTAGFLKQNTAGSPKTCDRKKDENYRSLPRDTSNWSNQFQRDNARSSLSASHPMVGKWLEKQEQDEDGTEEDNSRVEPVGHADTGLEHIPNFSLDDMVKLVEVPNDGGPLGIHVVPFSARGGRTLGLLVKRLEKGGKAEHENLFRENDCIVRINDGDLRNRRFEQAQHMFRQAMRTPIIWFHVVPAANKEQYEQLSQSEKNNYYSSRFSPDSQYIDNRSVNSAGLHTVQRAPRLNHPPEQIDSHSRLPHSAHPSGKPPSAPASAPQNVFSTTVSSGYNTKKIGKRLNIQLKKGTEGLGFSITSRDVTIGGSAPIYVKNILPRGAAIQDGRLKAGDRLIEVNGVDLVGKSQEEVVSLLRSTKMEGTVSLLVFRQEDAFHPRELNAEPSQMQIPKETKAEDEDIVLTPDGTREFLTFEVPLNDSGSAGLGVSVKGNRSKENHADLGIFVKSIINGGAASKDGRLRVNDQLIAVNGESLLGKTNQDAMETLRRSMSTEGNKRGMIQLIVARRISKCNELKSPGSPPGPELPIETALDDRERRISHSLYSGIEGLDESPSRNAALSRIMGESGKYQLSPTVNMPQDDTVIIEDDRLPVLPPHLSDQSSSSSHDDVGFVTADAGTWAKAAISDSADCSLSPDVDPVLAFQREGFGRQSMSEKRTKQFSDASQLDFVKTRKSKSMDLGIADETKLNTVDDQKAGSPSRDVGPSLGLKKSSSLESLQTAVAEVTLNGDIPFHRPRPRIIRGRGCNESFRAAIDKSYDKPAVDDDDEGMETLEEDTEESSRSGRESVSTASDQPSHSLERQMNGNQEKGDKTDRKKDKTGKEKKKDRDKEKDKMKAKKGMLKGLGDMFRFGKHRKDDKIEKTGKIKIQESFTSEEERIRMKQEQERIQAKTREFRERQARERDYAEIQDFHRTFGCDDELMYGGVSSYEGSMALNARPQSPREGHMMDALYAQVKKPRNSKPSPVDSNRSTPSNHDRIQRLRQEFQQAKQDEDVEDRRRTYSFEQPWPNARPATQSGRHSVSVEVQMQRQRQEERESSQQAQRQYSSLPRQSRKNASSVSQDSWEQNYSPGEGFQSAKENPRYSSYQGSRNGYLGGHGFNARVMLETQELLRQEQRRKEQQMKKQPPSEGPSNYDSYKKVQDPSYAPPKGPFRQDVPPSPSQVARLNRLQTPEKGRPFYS
T2 sequence (Q6P0Q8 whole entry, the tested form may be a part): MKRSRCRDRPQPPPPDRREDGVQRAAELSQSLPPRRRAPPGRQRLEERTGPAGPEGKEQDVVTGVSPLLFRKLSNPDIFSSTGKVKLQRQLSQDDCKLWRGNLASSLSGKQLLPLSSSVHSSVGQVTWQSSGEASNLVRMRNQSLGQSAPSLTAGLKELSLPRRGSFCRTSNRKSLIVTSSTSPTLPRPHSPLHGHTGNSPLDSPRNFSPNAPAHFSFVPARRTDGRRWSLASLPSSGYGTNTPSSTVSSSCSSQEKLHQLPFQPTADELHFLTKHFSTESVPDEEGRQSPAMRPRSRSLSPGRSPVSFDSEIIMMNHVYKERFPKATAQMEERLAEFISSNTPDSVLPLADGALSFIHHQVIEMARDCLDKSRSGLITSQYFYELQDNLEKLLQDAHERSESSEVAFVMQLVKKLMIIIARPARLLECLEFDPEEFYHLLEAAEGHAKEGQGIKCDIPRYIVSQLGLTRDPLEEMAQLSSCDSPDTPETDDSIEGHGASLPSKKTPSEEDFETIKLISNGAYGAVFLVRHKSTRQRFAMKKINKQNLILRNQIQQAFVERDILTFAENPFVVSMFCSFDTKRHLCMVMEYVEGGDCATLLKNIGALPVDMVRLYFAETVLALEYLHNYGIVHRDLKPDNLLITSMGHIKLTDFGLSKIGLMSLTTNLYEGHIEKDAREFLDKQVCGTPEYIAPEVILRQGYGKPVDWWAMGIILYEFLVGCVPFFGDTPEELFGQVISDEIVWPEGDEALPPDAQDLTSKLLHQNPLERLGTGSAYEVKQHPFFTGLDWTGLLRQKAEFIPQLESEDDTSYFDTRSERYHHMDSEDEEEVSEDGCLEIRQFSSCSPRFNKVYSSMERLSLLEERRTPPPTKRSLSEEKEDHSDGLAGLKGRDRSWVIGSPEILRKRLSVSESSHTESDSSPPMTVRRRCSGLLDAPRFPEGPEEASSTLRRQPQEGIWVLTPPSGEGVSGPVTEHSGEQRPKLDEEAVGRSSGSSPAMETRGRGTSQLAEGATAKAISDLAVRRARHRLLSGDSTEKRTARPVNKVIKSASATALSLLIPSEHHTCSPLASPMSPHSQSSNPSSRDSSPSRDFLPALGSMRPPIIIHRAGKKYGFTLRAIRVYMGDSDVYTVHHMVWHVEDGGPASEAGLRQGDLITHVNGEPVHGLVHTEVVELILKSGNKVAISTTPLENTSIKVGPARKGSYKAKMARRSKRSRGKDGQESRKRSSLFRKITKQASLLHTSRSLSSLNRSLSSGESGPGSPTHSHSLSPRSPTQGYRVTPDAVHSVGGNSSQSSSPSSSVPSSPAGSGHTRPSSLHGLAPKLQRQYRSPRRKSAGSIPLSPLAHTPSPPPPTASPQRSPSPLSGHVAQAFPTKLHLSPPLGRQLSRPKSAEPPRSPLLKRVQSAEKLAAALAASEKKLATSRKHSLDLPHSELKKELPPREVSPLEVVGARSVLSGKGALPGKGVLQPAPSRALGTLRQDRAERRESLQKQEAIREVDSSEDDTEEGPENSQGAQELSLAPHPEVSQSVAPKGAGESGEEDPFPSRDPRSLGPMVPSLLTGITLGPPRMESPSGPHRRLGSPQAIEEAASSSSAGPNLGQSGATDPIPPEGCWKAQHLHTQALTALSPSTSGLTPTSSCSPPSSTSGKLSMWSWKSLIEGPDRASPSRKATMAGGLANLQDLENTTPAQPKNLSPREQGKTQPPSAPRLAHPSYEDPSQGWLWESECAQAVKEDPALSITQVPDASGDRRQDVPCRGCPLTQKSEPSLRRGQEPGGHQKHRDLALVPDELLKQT
T11 sequence (Q13796 whole entry, the tested form may be a part): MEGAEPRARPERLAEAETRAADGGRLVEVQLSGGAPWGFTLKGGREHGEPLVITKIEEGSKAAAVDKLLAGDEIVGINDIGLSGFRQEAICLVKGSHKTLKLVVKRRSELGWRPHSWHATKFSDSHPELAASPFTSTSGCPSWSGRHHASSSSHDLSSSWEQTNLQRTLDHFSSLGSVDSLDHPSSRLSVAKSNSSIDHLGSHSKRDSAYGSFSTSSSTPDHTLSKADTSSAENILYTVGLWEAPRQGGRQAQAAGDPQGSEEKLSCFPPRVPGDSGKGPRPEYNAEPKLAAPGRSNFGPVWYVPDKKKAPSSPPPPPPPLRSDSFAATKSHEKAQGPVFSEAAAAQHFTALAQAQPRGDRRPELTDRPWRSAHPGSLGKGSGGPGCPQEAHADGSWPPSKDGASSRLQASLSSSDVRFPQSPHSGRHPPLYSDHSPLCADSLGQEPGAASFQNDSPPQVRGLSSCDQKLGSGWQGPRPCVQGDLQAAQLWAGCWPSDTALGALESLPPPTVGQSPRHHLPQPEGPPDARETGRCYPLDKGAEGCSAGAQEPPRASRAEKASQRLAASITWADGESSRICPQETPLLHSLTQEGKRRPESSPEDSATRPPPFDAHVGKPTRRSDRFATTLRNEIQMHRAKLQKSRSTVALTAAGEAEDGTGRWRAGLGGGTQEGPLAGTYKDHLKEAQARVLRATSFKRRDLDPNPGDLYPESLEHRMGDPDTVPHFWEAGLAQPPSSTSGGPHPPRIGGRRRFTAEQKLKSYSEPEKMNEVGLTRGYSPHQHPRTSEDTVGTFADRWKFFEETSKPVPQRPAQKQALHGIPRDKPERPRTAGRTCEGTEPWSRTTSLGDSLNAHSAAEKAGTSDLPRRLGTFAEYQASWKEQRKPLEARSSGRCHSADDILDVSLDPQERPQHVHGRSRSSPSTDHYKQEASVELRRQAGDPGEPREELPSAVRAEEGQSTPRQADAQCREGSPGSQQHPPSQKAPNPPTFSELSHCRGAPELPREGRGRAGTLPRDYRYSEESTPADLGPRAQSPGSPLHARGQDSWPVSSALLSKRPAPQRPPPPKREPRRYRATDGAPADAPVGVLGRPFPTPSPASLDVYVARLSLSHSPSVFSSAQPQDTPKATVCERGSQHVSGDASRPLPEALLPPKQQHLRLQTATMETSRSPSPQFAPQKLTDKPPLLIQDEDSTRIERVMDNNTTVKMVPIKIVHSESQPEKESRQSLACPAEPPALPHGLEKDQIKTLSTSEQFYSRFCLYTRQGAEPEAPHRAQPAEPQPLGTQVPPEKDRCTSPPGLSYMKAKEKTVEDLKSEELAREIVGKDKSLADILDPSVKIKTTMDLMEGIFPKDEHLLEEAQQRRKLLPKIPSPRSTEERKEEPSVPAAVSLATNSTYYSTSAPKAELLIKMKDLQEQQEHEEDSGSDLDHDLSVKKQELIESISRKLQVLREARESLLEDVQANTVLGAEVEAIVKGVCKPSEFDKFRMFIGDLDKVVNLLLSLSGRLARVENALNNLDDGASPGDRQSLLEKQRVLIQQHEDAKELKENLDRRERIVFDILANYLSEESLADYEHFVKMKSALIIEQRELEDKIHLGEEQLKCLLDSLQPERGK

Substance | Classification ([2]; PDZ KIAA0807(S), PDZ Domain 1) | Classification [5] | Classification [7] | Classification [11] | further results
NSYVRDDAIFIKAIVDLTGL (Biotin-NSYVRDDAIFIKAIVDLTGL) [TRAF2] | 4 (A450 nm 3-4) | – | – | – | Classification [1]: 1 (A450 nm 0-1); Classification ([2]; PDZ KIAA807): 2 (A450 nm 1-2)
RIAYSLLGLKDQVNTVGIPI (Biotin-RIAYSLLGLKDQVNTVGIPI) [ephrin A2] | – | 1 (A450 nm 0-1) | – | – | Classification [3]: 1 (A450 nm 0-1); Classification [4]: 1 (A450 nm 0-1); Classification [6]: 1 (A450 nm 0-1)
QGDPALQDAGDSSRKEYFI (Biotin-QGDPALQDAGDSSRKEYFI) [Glycophorin C] | – | 1 (A450 nm 0-1) | 2 (A450 nm 1-2) | – | –
VDPNSPAAKKKYVSYNNLVI [GLUR7 (metabotropic glutamate receptor)] | – | – | 2 (A450 nm 1-2) | – | Classification [8]: 1 (A450 nm 0-1); Classification [9]: 1 (A450 nm 0-1)
LLNVLQRQELGDGLDDEIAV (Biotin-LLNVLQRQELGDGLDDEIAV) | 1 (A450 nm 0-1) | – | 1 (A450 nm 0-1) | 1 (A450 nm 0-1) | Classification [10]: 1 (A450 nm 0-1); Classification ([2]; PDZ KIAA807, PDZ Domain not given): 1 (A450 nm 0-1); Classification [12]: 1 (A450 nm 0-1)
PTR2_HUMAN (Biotin-RPMESNPDTEGAQGETEDVL) | – | – | 1 (A450 nm 0-1) | 1 (A450 nm 0-1) | –
